Test results from the supplement of paper PMC9732359.
± gives the uncertainty stated by the source.

Assay: protein stability index of a GFP-peptide fusion (yeast GPS) (PSI 1-4); higher = more stable; sorted into four equal gates, so the index is relative within each strain
Summary of the method: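 Peptides tiling yeast proteins in 17-residue segments were fused downstream of GFP, with Cherry expressed from the same plasmid. As a pooled library in yeast, mid-log cultures grown in leucine-free medium were sorted into four equal gates by GFP/Cherry fluorescence ratio. Gate plasmids were PCR-amplified and Illumina-sequenced, and barcodes linked reads to strains. Each peptide received a protein stability index equal to the sum of each gate's read frequency times its gate number.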

Row | Sequence | protein stability index (pdr5∆) | protein stability index (ubr1∆) | protein stability index (doa10∆) | protein stability index (san1∆)
1 | NVLIGGYDKKKNKPELY [PRE1] | 2.53 ± 0.27 | 2.74 ± 0.27 | – | –
2 | ATANATANATAELNLPT [SNF11] | 3.265 ± 0.029 | 3.282 ± 0.02 | 3.096 ± 0.028 | 3.212 ± 0.032
3 | ETLGLKYLGLKPGSIDA [FAS1] | 3.24 ± 0.097 | 3.22 ± 0.095 | 3.24 ± 0.13 | 3.03 ± 0.076
4 | PMIKAEETPSKTNKISI [NUT1] | 2.8 ± 0.049 | 2.84 ± 0.051 | 2.52 ± 0.057 | 2.6 ± 0.06
5 | IASKMSLAPEADLDSLI [RPT3] | 2.81 ± 0.13 | 3.07 ± 0.19 | 2.62 ± 0.1 | 2.1 ± 0.12
6 | SKVQFDAKTSYPNEVLK [REC8] | 3.08 ± 0.072 | 3.04 ± 0.067 | 2.77 ± 0.05 | 3.06 ± 0.059
7 | VRTDTTYPAGFMDVITL [RPS4A] | 2.57 ± 0.1 | 2.78 ± 0.098 | 2.37 ± 0.11 | 2.92 ± 0.1
8 | VKNVKNSDLEFNTFWDE [ARP9] | 3.13 ± 0.14 | 3.46 ± 0.084 | 3.08 ± 0.088 | 3.53 ± 0.11
9 | INLTKVTQKDICILGIL [CSI1] | 2.83 ± 0.07 | 3.11 ± 0.15 | 2.78 ± 0.07 | 3.03 ± 0.059
10 | LLEISCKQWEISNMLKK [CSI1] | 1.58 ± 0.048 | 1.5 ± 0.046 | 1.5 ± 0.052 | 1.75 ± 0.077
11 | LRDIGECENEIKTKQMS [SMC2] | 3.29 ± 0.092 | 3.41 ± 0.12 | 3.05 ± 0.29 | 3.2 ± 0.097
12 | EYRPFSKKVLECLPAEG [DIS3] | 1.68 ± 0.12 | 1.56 ± 0.068 | 1.39 ± 0.13 | 1.46 ± 0.1
13 | YQTCKNSEYLKRRVTNL [SMC2] | 2.09 ± 0.079 | 2.45 ± 0.073 | 2.37 ± 0.071 | 2.44 ± 0.078
14 | INKLMEKDFQVNKEIKP [SIR4] | 3.31 ± 0.069 | 3.31 ± 0.057 | 3.4 ± 0.083 | 3.16 ± 0.069
15 | LQISDIPAAGNNRSVSM [SRB5] | 2.35 ± 0.07 | 2.8 ± 0.06 | 2.77 ± 0.075 | 2.4 ± 0.083
16 | EEGRAIPGEYVTYALSG [RPS21A] | – | 2.96 ± 0.16 | – | 2.81 ± 0.19
17 | SAAATPSLNKTINGKVN [GAL11] | 3.14 ± 0.041 | 3.01 ± 0.046 | 2.9 ± 0.06 | 2.81 ± 0.042
18 | MSDTEAPVEVQEDFEVV [RPS5] | 3.24 ± 0.15 | 3.09 ± 0.086 | 3.23 ± 0.1 | 3.35 ± 0.078
19 | IVSKSIEMYVQEASKQY [RPN2] | 2.98 ± 0.1 | 2.68 ± 0.1 | 2.53 ± 0.087 | 1.54 ± 0.088
20 | KRANNIRKFFGLSKEDD [RPS6A] | 3.22 ± 0.11 | 3.56 ± 0.11 | 3.39 ± 0.17 | 2.98 ± 0.15
21 | AGVSHGTLGEIFIRCNN [SMX3] | 3.37 ± 0.096 | 3.29 ± 0.08 | 3.57 ± 0.14 | 2.91 ± 0.094
22 | SSKNETSKPVFSFGAAT [YLR335W/NUP2] | 3.08 ± 0.07 | 3.06 ± 0.038 | 3.12 ± 0.071 | 2.88 ± 0.063
23 | DMDAQGRSDSNTEEKAE [YGL100W/SEH1] | 1.67 ± 0.051 | 1.4 ± 0.041 | 1.57 ± 0.038 | 1.5 ± 0.14
24 | GKGPGCGFWQPAWRVWL [PRP8] | – | 2.1 ± 0.19 | 2.58 ± 0.19 | –
25 | KQIIVTRKAMLDPLEVH [PRP8] | 3.13 ± 0.071 | 3.05 ± 0.055 | 3.11 ± 0.094 | 3.16 ± 0.062
26 | KRIHSVRTRGGNKKYRA [RPS8A] | 2.621 ± 0.022 | 2.591 ± 0.018 | 2.509 ± 0.024 | 2.626 ± 0.025
27 | PNYLHLVSSYLNKSDLL [YML103C/NUP188] | 2.27 ± 0.034 | 1.8 ± 0.031 | 1.96 ± 0.038 | 2.21 ± 0.04

Row | Sequence | protein stability index (pdr5∆) | protein stability index (ubr1∆) | protein stability index (doa10∆) | protein stability index (san1∆)
28 | LKKFLQEKMDPNNSRDD [IRR1] | 3.12 ± 0.068 | 3.09 ± 0.07 | 3.11 ± 0.081 | 3.19 ± 0.064
29 | WKSPEWIQVFGLRTENV [MED6] | 2.22 ± 0.058 | 2.35 ± 0.072 | 2.14 ± 0.084 | 2 ± 0.13
30 | LLKPFHVKVNDKKEMTI [SIR3] | 2.58 ± 0.15 | 2.68 ± 0.14 | 3.05 ± 0.18 | 2.21 ± 0.14
31 | CFVHRYKDVSDLIRSES [IRR1] | 2.7 ± 0.061 | 2.89 ± 0.06 | 2.67 ± 0.082 | 2.89 ± 0.056
32 | PLLAQLFKTLFKKLTKD [RPB2] | 1.29 ± 0.039 | 1.16 ± 0.03 | 2.65 ± 0.04 | 1.18 ± 0.092
33 | AANEGTAVSFVSAAEDE [PRP28] | 3.46 ± 0.23 | – | 2.96 ± 0.24 | 3.01 ± 0.19
34 | DKKVLVKVQPEGKYIVD [RPT6] | 3.28 ± 0.088 | 2.96 ± 0.062 | 3.23 ± 0.081 | 3.23 ± 0.036
35 | VQMAKILRKELSEEKEV [MCD1] | 3.17 ± 0.27 | – | 3.37 ± 0.21 | 2.9 ± 0.12
36 | DIGVLEEYARRLAEFKR [SMC4] | 3.38 ± 0.11 | 3.35 ± 0.077 | 3.13 ± 0.12 | 2.74 ± 0.096
37 | TRSIKEKWLLNQIPVTE [SRB6] | 1.34 ± 0.18 | 1.18 ± 0.17 | 1.13 ± 0.1 | 1.29 ± 0.19
38 | KLLLLNTSAIQETASPL [YIL149C/MLP2] | 2.42 ± 0.21 | 2.56 ± 0.088 | 2.33 ± 0.13 | –
39 | SRLCTPIPVQGEIEIKP [RPN13] | 2.58 ± 0.067 | 2.66 ± 0.1 | 2.42 ± 0.078 | 1.7 ± 0.26
40 | FHFAIEQISNNSNQQQN [SIN4] | 2.53 ± 0.044 | 2.9 ± 0.049 | 2.93 ± 0.061 | 2.74 ± 0.066
41 | LPGDMLAVCDELGNMTM [SIN4] | 2.77 ± 0.072 | 2.66 ± 0.085 | 2.76 ± 0.071 | 2.78 ± 0.089
42 | APAYAWSHNGPFETFDH [CYT1] | 2.64 ± 0.099 | 2.78 ± 0.1 | 2.19 ± 0.098 | 1.75 ± 0.16
43 | KFSDIIQGISKMYSDDT [BRN1] | 2.71 ± 0.066 | 2.3 ± 0.085 | 2.93 ± 0.062 | 2.14 ± 0.08
44 | LPNKSTISKTVSSTIPR [FAS2] | 2.63 ± 0.077 | 2.94 ± 0.084 | 2.01 ± 0.072 | 2.92 ± 0.11
45 | VNLDNTAVGKAAVVKTS [RPT5] | 3.12 ± 0.057 | 3.05 ± 0.039 | 3.16 ± 0.064 | 3.28 ± 0.041
46 | LGQIGACHVEVPYVLMG [COB] | 2.01 ± 0.066 | 1.95 ± 0.06 | 2.05 ± 0.083 | 1.89 ± 0.12
47 | HETTFMTAMRLMLKKLK [YML031W/NDC1] | 2.56 ± 0.094 | 2.5 ± 0.069 | 1.21 ± 0.097 | 2.42 ± 0.1
48 | TSSRQTVFLPMVGLVDP [RPT5] | 2.62 ± 0.044 | 2.16 ± 0.033 | 2.55 ± 0.038 | 2.39 ± 0.044
49 | YLEELERKKQSDVLRFL [RPL15B] | 2.23 ± 0.22 | 1.54 ± 0.1 | 1.34 ± 0.16 | 1.44 ± 0.25
50 | TAAIDSVVSQIEKGSTF [FAS1] | 2.95 ± 0.078 | 2.93 ± 0.057 | 3.1 ± 0.097 | 3.12 ± 0.072
51 | SKESWRYDWYQPSKVSS [RTT102] | 2.33 ± 0.098 | 1.96 ± 0.036 | 2.09 ± 0.097 | 1.94 ± 0.074
52 | IKQDIPIVIIFRALGII [RPB2] | 1.33 ± 0.037 | 1.49 ± 0.039 | 1.61 ± 0.05 | 1.48 ± 0.077
53 | TDDVRLAPELNQAIWKR [RPL31A] | 3.3 ± 0.077 | 3.12 ± 0.048 | 3.28 ± 0.1 | 3.18 ± 0.079
